We go through one substance from patent US20040224337.

Data set [1] has as its system FASpTyr275 peptide (Biotin-KKEAY(PO3)DTLI-COOH).
In the next data set the target is FAS (UniProt P25445).
Sequence of UniProt P25445 (P25445 26-335): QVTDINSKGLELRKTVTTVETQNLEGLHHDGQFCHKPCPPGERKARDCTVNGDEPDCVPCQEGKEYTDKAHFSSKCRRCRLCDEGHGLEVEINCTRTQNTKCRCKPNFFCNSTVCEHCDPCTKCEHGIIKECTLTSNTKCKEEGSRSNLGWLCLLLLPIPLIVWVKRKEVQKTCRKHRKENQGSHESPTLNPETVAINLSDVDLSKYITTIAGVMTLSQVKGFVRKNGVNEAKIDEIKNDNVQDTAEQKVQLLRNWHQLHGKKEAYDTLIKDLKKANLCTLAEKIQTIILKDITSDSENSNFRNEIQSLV

With PTPL1/FAP-1, the “in vitro phosphatase assay (dephosphorylation relative to vector as percent activity)” value in data set [1] is recorded as “FAP-1 immunoprecipitated from overexpressing cells dephosphorylates the biotinylated phospho-peptide (FASpY275) in an in vitro phosphatase assay”. For the same substance, in the data set with FAS, the “tyrosine phosphorylation of immunoprecipitated FAS (PY20-HRP blot after incubation in phosphatase reaction buffer)” value is listed as “endogenous FAP-1 dephosphorylates FAS”.
